Laboratory results taken from a protein production outcome set (Wang et al. 2014).

Assay: label from the status in PepcDB records

| Sequence | protein production |
| --- | --- |
| MKHYTVAINGLPQEFEGFTILHLTDLHAKKYGDQQDKLIRLINRQNFDMVAMTGDFIDKDNPDLEPTLELIQGLAAKPIFFVPGNHEWRYDFSIKSSLEEHGVKILDNKNAELARGDARLWIAGVDDPYLHRDKLEEALHGIADAQPKLLLAHAPNIFKPAAESGVELVLVGHTHGGQVRLPLIGAIVAPGQGLFPQYDYGHFTAGSTNMIVNGGLGESTLPLRFCSRPEIVLVKLVSAPLEHHHHHH | failed |
| MAILHSVSYGTSDNTLVFIGSLGSTTDMWLPQLDALHKDFRVIAVDHRGHGLSELIEGTPTVADLAQDVLDTLDDLGVGNFGVIGLSLGGAVAQYLAATSDRVTKAAFMCTAAKFGEPQGWLDRAAACRENGTGSLSEAVIQRWFSPTWLENNPASREHFEAMVAGTPSEGYALCCEALATWDFTDRLGEITVPVLTIAGADDPSTPPATVQIIADGVGGESRAEVLSPAAHVPTVERPNEVNELLAQHFA | failed |
| DCYKNFVAKKCAGCKNPITGFGKGSSVVAYEGQSWHDYCFHCKKCSVNLANKRFVFHQEQVYCPDCAKKL | not failed |
| MAMSHLFLSSSPQSSLALRLHSTTQFTLSYSKNNKDCSFQSANEAKVSKRSLLCRAIHMESGHSGEQPKKLNFDNLLRRTKHVWDNSPQPVKEFPWNRAFGNFIQLVLDLAISVVKFLFVPILAVSSISEMSYCAHERKLALVPFPLVIGMVVAGVLQETALKISPRLKEAEVPWHLIAMMMFFTLIKLPGPYYPYWGRLLVPHFANGVLLRALWSMFFWYKKTRNTSGNPLQNHSLETE | failed |
| MFKRLKDSALLFWSLEILIVATLIWVCTNIGFLFQPIGTFLSVVFMPILISGFLFYMLNPLVKLLTKVHYKKFRISRTGAVAIVFVLLFGLLVWGAVSLLPRLVSQVTQLIYNLPSIATEMQKAATKLINNSSVLKRIDISSYTKQFNGEISKYSQNFLSSLSSSVVTVISTITSVTIMAITIPVVLFYMLKDSEKFIPAISRFLPKKQRPEVIGLLQKMGDTISSYISGQVIECLFVGTFTAIGYMLISQPYGLLLGVIAGLTNIIPYVGPYIGIAPSLIVAFTKSPMQVVYVIIVVVIVQQVDGNLIYPNIIGRTLKIHPLTIIILLLAAGNIAGILGMILAIPFYAVVRTVVIYLYNIVELRNEEHLRKQTTVYQPQPAKATKADLTTTTKSKK | failed |
| MEPAILIITLICGMLVSRIGLPPLIGYLVAGFVLFVMGIEKESMPLLQELANLGVTLLLFAIGLKLDIRSLFKAEVWAGSSVHLILSILVFVPILKILGLLGLSQLTSLGIEQLTLLAFALSFSSTVFAVKVLEDKGDMQSLYGRVAIGILIMQDIFAVLFLTISKGDVPSVWAFALLLLPLAKPLIYKAFDRVGHGELLVLFGLVMALVVGAWLFESLGLKPDLGALVIGILLAGHKKASELAKSLFYFKELFLVAFFLTIGLNGLPTVSDIVLAALLVLLVPLKILLFVYILTRFKLRSRTSMLGSFNLGNFSEFGLIVAAVATSKGWLPSHWLVIIAVALSFSFLLAAPLNATVGSIYQRFQLRLVRLEKRPLHPEDRPIAIGNPRFLILGMGRIGSGAYDELRARFDGEILGIEHKQDLVDLHRAKGRNVVQGDASDTDFWEKLDKAPNLELVLLAMPHHAGNLFAVEQLNKLNYQGKISAIVQYGEDAASLRNSGVHSVYNLYEAAGAGFVDHVVHELLPDSETKAGTEAQEGTQKQTSSLV | failed |
| MGTKERILEVSKELFFEKGYQGTSVEEIVKRANLSKGAFYFHFKSKEELITEIIERTHKKIISLFEENKEKTPEELLEMFLEVLYREKKVVYIFLFDLLCSEKFRNIYFEKIEDAKRRFEKFLEKHFPSKAEILSEIILGFLRQLILHYVIKEERELPFLKEKLREGLKLIFEGVKKCG | not failed |
| MSQFQEVRPVAQALYPTHPSTKDALEEARLLLPGGTHHDFMRALMGYHNTLVKVMEEQC | not failed |
| MSVPQRPHQFVLTLSCPSAAGQVAAVVGLLDRHRCYVDELTVFDDDLSARFFVRCVFHATDDADALRVDALRREFEPIAERFRMQWAIHDVAARPKVLIMVSKLEHCLADLLFRWKMGELKMDIVGIVSNHPDFAPLAAQHGLPFRHFPITADTKAQQEAQWLDVFETSGAELVILARYMQVLSPEASARLANRAINIHHSFLPGFKGAKPYHQAHARGVKLIGATAHFVTDDLDEGPIIEQVVERVDHSYRPEQLLAVGRDVECITLARAVKAFIERRVFLNGDRTVVFQ | not failed |
| MLNEIVVFFSILVSSWNIYNSALSFYGLTWRVNQKIEYSDKTFSILVPAKNEEKVLGRLLDRLINQEYDKSKYEIIVVEDGSTDRTFQICKNYEENYDNVRCVKLDKSNVPNGKSRALNYAMKLAKFDIIGVFDADTFPRLDVLSYVSGSFDSDNVVAVQGKLIPINVRESIIARFASLEELFNEYSIGGRARFGLFVPLEGTCTFVKKSIIEEMGGWNEYSLTEDLDLSVKLTSAGYKIMYNPNVVAWREVASSLRWLIKQRLRWYRGHFEISLSMPKKIDPRIFDGILLIGTPIFMLMNLVNYSLVLIYQTPLFVVTMVIVSTATLLSFITAVGISRKHLIEYQYSILSLIYMNFVMLLNVTAVFLEIVRVPRVWIKTERSGKISVPEV | failed |
| MNNSAFTFQTLHPDTIMDALFEHGIRVDSGLTPLNSYENRVYQFQDEDRRRFVVKFYRPERWTADQILEEHQFALQLVNDEVPVAAPVAFNGQTLLNHQGFYFAVFPSVGGRQFEADNIDQMEAVGRYLGRMHQTGRKQLFIHRPTIGLNEYLIEPRKLFEDATLIPSGLKAAFLKATDELIAAVTAHWREDFTVLRLHGDCHAGNILWRDGPMFVDLDDARNGPAVQDLWMLLNGDKAEQRMQLETIIEAYEEFSEFDTAEIGLIEPLRAMRLVYYLAWLMRRWADPAFPKNFPWLTGEDYWLRQTATFIEQAKVLQEPPLQLTPMY | not failed |
| MVINSTVWQCEATGKENLTYEEAVKSERAARKKMEQFKQSLRAPVLLVVEHAQQSAVNTLNMIVAKFLRKRYFIGEEVSVQAKKNATYTVLGVKLDKNMPEPLNGIYEDTDNLVYRLRPNKGDPSAELDLPFRQLRRSRMEFNLENLSMFIKSNVSRVDGLLRPKPEA | failed |
| SDLPDSASRVFCGRILSMVNTDDVNAIILAQKNMLDRFEKTNEMLLNFNNLSSARLQQMSERFLHHTRTLVEMKRDLDSIFRRIRTLKGKLARQHPEAFSHIPEASFLEEEDEDPIPPSTTTTIATSEQSTGSCDTSPDTVSPSLSPGFEDLSHVQAGSPAINGRSQTDDEEMTGE | failed |
| HLGEVQSEVVRFAVRFPSDKEQSSLLIDADAPVYDFVRLRLLNGEPVSLDLTVMPVGLVPGLTKSHLEGSVFRYVQETLGLKLMGSYRVVRAMKPGELDKQHLHCEPTDPVLEVEQVIYLEDGTPLEYAHCHYRYDHGG | not failed |
| MAPVIRRAKEIDLYCLNSLMYKLHDEHHQQCPDLFKTASEIEEEKSIARYLDDPECMVYVAEMDDVIIGFITGHFCELISTVSKLVMMATIDELYIEKEYRREGVAEQLMMRIEQELKDYGVKEIFVEVWDFNKGALEFYNKQGLNEHIHYLRKPLNRLEHHHHHH | not failed |
| MVNRFVLEPKTVLEGEQEQKLKDSEAAVASLQTSKEYLEKQVAEVENNLRELLQQEPGIAQQIMSMSM | failed |
| VNELLHLAPNVWPRNTTRDEVGVVCIAGIPLTQLAQEYGTPLFVIDEDDFRSRCRETAAAFGSGANVHYAAKAFLCSEVARWISEEGLCLDVCTGGELAVALHASFPPERITLHGNNKSVSELTAAVKAGVGHIVVDSMTEIERLDAIAGEAGIVQDVLVRLTVGVEAHTHEFISTAHEDQKFGLSVASGAAMAAVRRVFATDHLRLVGLHSHIGSQIFDVDGFELAAHRVIGLLRDVVGEFGPEKTAQIATVDLGGGLGISYLPSDDPPPIAELAAKLGTIVSDESTAVGLPTPKLVVEPGRAIAGPGTITLYEVGTVKDVDVSATAHRRYVSVDGGMSDNIRTALYGAQYDVRLVSRVSDAPPVPARLVGKHCESGDIIVRDTWVPDDIRPGDLVAVAATGAYCYSLSSRYNMVGRPAVVAVHAGNARLVLRRETVDDLLSLEVR | not failed |
| MPKDNEEPLVKIPEFDERKFLFDEKERAKSIVIIFIIGAIVGSISGYFQLIGYWYLSLILILVVLLFSEYILKGLGVQVSKKTSHRILLVGEFLLTWLVFWILVLNPPLNHVSGPEIANLQMYSNNVWTSIVEKNGVYNIPFGSATSGTVSLRVYMFAYSGVVSYKVMAYQSSYAPAVIPSHLNDNYLYFNLTDVHYGSTYYVQVYGSTTVNGSNLTSEVSYTLYAE | failed |
| MGHHHHHHSHMTKLPPIEQLLPHDKPMILVDRAMDIQQDTIHCQVDIAEHNPFFDSASQTVPAYVGIEFMAQSVAAWSGYHALMKEQAPPIGFLLGSRRYTSECDAFSRGQMLDVYAEKVMEDNGMAVFSARIELQGTVVATCQLNVYVPSEEKLQEMKIRSQQ | not failed |
| MSLVGKTLSGRYRVVRPLARGALARVYLAFDPFGTPYALKLFPPKARPRRDRELWVGRRLAHPNLNPVLEALDLEEGPALLLAYAPGEELGRWMGKSPAFSQAMRVFHQLLLALAHMHEKGLVHRDVKPENILVNAGEARLLDFDLSGPAQERFQKPLLLGTPAYLAPELLRGLPSGPEADVYAAGIILYWMLTGEHPFADPSGRVSLDPDRGPHPPVAGLGEEAALYLERLLAPDPKARFPTAQEALKAFPF | failed |
| MREEQVSDCGSITLEEWNGSSSTKLFKTATITASSSLSIQRSANRFNHVWRRVLQAFVPEASGFPGSVTPDYVGFQLWDTLQGLSTYTKMMLSTQALLSAIGVGEKSATVIGATFQWFLRDFTGMLGGILFTFYQGSNLDSNAKMWRLVADLMNDIAGVASGATRAALTQHFALQDNAADISAKEGSQETMATMMGMSLGMLLARFTSGNPMAIWLSFLSLTVFHMYVLSPEQVSSMEGVLPLWATSLRSTNSKPLHKRVQLGVRVSSLPRLDMLQLLNGVGASSYKNAKYLLAHIKGNVSVILHKDSKPADVLKSYIHAIVLANLMEKSTSFYSEGEAWIDKHYDELLHKVRLNH | failed |
| MDYRQLHRWDLPPEEAIKVQNELRKKIKLTPYEGEPEYVAGVDLSFPGKEEGLAVIVVLEYPSFKILEVVSERGEITFPYIPGLLAFREGPLFLKAWEKLRTKPDVVVFDGQGLAHPRKLGIASHMGLFIEIPTIGVAKSRLYGTFKMPEDKRCSWSYLYDGEEIIGCVIRTKEGSAPIFVSPGHLMDVESSKRLIKAFTLPGRRIPEPTRLAHIYTQRLKKGLFLEHHHHHH | not failed |
| MPYMTTDAKEVSGKSFDYIVVGGGTAGCSLAATLSEKYSVLVIERGGSPFGDPLVEERKYFGYSLLNTDEYSSVAQSFTSVDGIENYRGRVLGGSSAINGGFYSRASDEFVKKAGWDKGLVQESYKWVESKVVFMPELTQWQSVVQFGFLEAGFYPYNGYSLEHTQGTKIGGSIYDQCGKRHTSADLLGFGKPNCITVLLNTTVKSIIFDSSNKTRAVGVRFMESDGNSSKSYKVHVEQHRGEVILAAGALGSPQILLLSGIGPENHLKDFDIPVIVNLKEVGRKMSDNPAISLLVDRFSQNRTLEPPQVAAIAEGYKFILESEVLPTDITTTRISIAAKIAFPKSKGRLKLNSTNPRENPSVKFNYLENKADLDACLEMVLHLQHVARSETVTFFLGTQAHDKLVAGDEELKSFCIKNVRTYYHYHGGCVVGSVVDEEYKVNGVKRLRVVDGSTFEESPGTNPMATVLMLGRYQGIKILKEREEQEDTFLSPQGSPQPQP | failed |
| MIVIYFFSTKSQQFFAYVWAIFPVIAFFLVSFYTLDFLFSPSYLIMVPVFTIMFKINYKKDYSFVALLKMSIRQFVISFLAFIASSSFSWSIILNSSVTFLIVYLFYSSATPMRYHSYLMMFTFCQLIQVKGNTFLMQSQVVAFLIGLFLLALTLNAWWQTGLRQLTSLKSRGHVRFFKSIQLNMKQQKLAVINFWHDLQQIFFGITSFKQFLESPDERVQRFRLAIRMSFTITLSFILMWSVGGIKIIWIPMNVFLLLHPVKAEMNTRIKTRFWGTLLGCFLSLFVVNWLQLPLTHLIVSSLIGIFVYALKPGTVLQVTMATIFGLCLATISLRGMYAAELRVSFVLLAIFVVCLIDLGLFVYQRILRF | failed |
